The labels stand for the following.
T1: TMPRSS6 expressed in transfected HepG2 cells (HAMP-luciferase reporter assay) (UniProt Q8IU80 1-811, limits assumed)
T1 sequence (looked up): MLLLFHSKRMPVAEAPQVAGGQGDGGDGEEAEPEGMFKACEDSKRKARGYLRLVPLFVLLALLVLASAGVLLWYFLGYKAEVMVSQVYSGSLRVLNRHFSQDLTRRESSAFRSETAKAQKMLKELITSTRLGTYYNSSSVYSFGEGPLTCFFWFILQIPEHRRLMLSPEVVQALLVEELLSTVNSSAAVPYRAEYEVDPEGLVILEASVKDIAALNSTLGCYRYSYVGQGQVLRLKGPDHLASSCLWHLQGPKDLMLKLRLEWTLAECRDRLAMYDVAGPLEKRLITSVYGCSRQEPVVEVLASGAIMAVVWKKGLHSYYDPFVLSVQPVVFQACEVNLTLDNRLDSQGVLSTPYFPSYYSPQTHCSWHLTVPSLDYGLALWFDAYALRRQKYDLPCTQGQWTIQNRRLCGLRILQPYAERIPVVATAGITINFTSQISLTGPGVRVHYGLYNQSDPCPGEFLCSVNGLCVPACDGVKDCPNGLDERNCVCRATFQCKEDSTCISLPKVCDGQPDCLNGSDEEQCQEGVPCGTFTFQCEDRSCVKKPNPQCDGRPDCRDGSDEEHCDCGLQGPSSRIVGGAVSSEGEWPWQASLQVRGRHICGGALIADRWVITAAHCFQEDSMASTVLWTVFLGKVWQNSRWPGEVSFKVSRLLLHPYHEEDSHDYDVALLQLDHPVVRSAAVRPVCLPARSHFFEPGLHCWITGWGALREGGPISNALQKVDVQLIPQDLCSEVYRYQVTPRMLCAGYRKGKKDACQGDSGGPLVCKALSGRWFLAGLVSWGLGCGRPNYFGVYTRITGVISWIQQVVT

T2: matriptase (ST14) over-expressed in HEK293T cells (human, UniProt Q9Y5Y6 1-855)
T2 construct: also called matriptase-1
T2 sequence: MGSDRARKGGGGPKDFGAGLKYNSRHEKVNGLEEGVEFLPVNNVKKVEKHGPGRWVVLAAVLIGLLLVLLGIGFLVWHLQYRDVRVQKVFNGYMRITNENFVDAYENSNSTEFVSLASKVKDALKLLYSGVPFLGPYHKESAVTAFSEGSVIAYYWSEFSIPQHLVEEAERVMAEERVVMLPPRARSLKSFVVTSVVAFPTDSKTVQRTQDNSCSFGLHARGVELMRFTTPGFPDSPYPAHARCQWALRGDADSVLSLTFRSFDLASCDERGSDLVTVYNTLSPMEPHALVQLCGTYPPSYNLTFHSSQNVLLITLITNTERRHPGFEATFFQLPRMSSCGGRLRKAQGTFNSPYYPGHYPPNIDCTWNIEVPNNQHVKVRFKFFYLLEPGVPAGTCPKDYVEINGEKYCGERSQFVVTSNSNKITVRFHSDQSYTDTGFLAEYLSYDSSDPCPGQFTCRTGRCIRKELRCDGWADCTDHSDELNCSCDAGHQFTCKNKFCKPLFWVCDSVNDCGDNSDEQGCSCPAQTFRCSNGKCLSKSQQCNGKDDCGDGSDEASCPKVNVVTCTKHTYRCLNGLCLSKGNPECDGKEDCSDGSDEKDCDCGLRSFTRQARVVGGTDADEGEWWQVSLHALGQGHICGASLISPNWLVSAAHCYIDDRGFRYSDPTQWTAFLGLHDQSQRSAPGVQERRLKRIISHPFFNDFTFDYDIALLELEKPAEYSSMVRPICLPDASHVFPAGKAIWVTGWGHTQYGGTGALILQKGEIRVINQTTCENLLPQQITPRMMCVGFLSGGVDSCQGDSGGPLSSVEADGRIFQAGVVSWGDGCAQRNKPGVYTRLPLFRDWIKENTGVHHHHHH

B1: humanized anti-TMPRSS6 antibody variant hzMWTx-002 Var (antibody, human IgG1, kappa, N297A, V domains shown)
VH: EVQLVQSGAEVKKPGASVKVSCKASGFNIKDYYIHWVRQATGQGLEWMGRIDPEDAESEYAPKFQGRVTITADTSTDTAYMELSSLRSEDTAVYYCTRGDSMMVTYFDYWGQGTLVTVSS
VL: DIQMTQSPSSLSASVGDRVTITCKASQDVSTAVAWYQQKPGKAPKLLIYWAFTRHTGVPSRFSGSGSGTDYALTISSLQPEDFATYYCQQHYRSPWTFGGGTKVEIKR
notes: Human IgG1 / kappa
B2: humanized anti-TMPRSS6 antibody variant hzMWTx-003 Var (antibody, human IgG1, kappa, L234A L235A, V domains shown)
VH: QVQLVQSGAEVKKPGASVKVSCKASGFNIEDYYMHWVRQAPGQRLEWMGRIDPEDAETTYSPKFQGRVTIIPDTSANTAYMELSSLRSEDTAVYYCARSIYLDPMDYWGQGTLVTVSS
VL: DIQMTQSPKSLSASVGDRVTITCRASQDVTTALAWYQQKPGQSPKLLIYWATTRHSGVPSRFSGSGSGTDFTLTISSLQPEDFATYYCQQHYSTPYTFGQGTKLEIKR
notes: Human IgG1 / kappa
B3: MWTx-001 anti-TMPRSS6 monoclonal antibody (antibody, mouse IgG2a, kappa, V domains shown)
VH: QVQLQQPGAELAKPGASVKMSCKASGYTFTSYWITWVKQRPGQDLEWIGNIYPGSGSTYYNEKFKSKATLTVDTSSRTAYMQLSSLTSADSAVYYCAPYDSDYAMDYWGQGTSVTVSS
VL: DIKMTQSPSSMYASLGERVTITCKASQDINNYLSWFQQKPGKSPKTLIYRANRLVDGVPSRVSGSGSGQDYSLTISSLEYEDVGIYFCLQYDEFPLTFGAGTKLELKR
notes: Mouse monoclonal antibody from hybridoma (ATCC PTA-126759)
B4: humanized anti-TMPRSS6 antibody variant hzMWTx-001 Var (antibody, human IgG1, kappa, N297A, V domains shown)
VH: EVQLVQSGAEVKKPGASVKVSCKASGYTFTSYWITWVRQAPGQRLEWIGNIYPGSGSTYYNEKFKSKATITRDTSSRTAYMELSSLRSEDTAVYYCAPYDADYAMDYWGQGTLVTVSS
VL: DIQMTQSPSSLSASVGDRVTITCKASQDISNYLSWFQQKPGKAPKLLIYRANRLVEGVPSRFSGSGSGTDFTLTISSLQPEDFATYFCLQYDEFPLTFGGGTKVEIKR
notes: Human IgG1 / kappa
B5: MWTx-002 anti-TMPRSS6 monoclonal antibody (antibody, mouse IgG2b, kappa, V domains shown)
VH: EVQLQQSGAELVKPGASVKLSCTASGFNIKDYYIHWVKERTEQGLEWFGRIDPEDGESEYAPKFQGKATLTADTSSNTAYLQLSSLTSEDTAVYYCTRGDSMMVTYFDYWGQGTTLTVSS
VL: DIVMTQSHKFMSTSVGDRVSITCKASQDVSTAVAWYQQKPGQSPKLLIYWAFTRHTGVPDRFTSTGSGTDYALTISSVQAEDLALYYCQQHYRSPWTFGGGTKLEIKR
notes: Mouse monoclonal antibody from hybridoma (ATCC PTA-126760)
B6: MWTx-003 anti-TMPRSS6 monoclonal antibody (antibody, mouse IgG2b, kappa, V domains shown)
VH: EVQLQQSGAELVKPGASVKLSCTASGFNIEDYYIHWVKERTEQGLEWIGRIDPEDGETTYAPQFQGKATIIPDTSSNTAYMQLSSLTSEDAAVYYCARSIYLDPMDYWGQGTSVTVSS
VL: DIVMTQSHKFMSTSVGDRVSITCKASQDVTTAVAWYQQKPGQSPKILIYWATTRHTGVPDRFTGSISGTTYILTISSVQAEDLALYYCQQHYSTPYTFGGGTKLEIKR
notes: Mouse monoclonal antibody from hybridoma (ATCC PTA-126761); The recombinant version r4K12B has the same HC and LC; also called r4K12B; recombinant MWTx-003

For one assay, the target named is T1, TMPRSS6 expressed in transfected HepG2 …. Description: cell-based or functional assay.
For the molecule B1, the “EC50 of the increase of HAMP promoter activity (HAMP-luciferase reporter assay, HepG2 cells expressing TMPRSS6, hBMP6)” value was 0.3 µg/mL.
Consider B2, for which the “EC50 of the increase of HAMP promoter activity (HAMP-luciferase reporter assay, HepG2 cells expressing TMPRSS6, hBMP6)” value was 0.3 µg/mL.
On the same count and under the same terms, to B3 belongs 3 µg/mL.
Still for that read-out and setting: to B4 belongs 0.8 µg/mL; to B5, 1 µg/mL; to B6, 2 µg/mL.

A further assay concerns the target T2, matriptase (ST14) over-expressed in …. Description: FACS on permeabilized HEK293T cells over-expressing matriptase (ST14). The source says:
To determine if anti-TMPRSS6 antibodies bind to homologous matriptases, HEK293T cells over-expressing matriptase (ST14) (SEQ ID NO: 100) (FIGS. 5B, 5E, 5H, 5K, 5N, 5Q), and HEK293T cells over-expressing matriptase-3 (TMPRSS7) (SEQ ID NO: 101) (FIGS. 5C, 5F, 5I, 5L, 5O, 5R) were collected (generated in house). HEK293T cells stably expressing human TMPRSS6 (matriptase-2) (SEQ ID NO: 97) (generated by LakePharma Inc as described above, FIGS. 5A, 5D, 5G, 5J, 5M, 5P) were used as a positive control and HEK293T cells (FIGS. 5A-5R) were used as a negative control (as described above). Cells were blocked and permeabilized with dPBS+3% BSA+0.1% Tween-20 before incubation with various anti-TMPRSS6 antibodies diluted in dPBS+3% BSA+0.1% Tween-20. Cells were incubated with anti-TMPRSS6 antibodies and their humanized variants at a concentration of roughly 1 μg/ml for 1 hr. After incubation, cells were washed with dPBS and incubated with goat anti-mouse IgG conjugated with AlexaFluor-488 (Invitrogen, FIGS. 5A-5I) or goat anti-human IgG conjugated with Allophycocyanin (APC) (Jackson Immuno Research, FIGS. 5J-5R) as a 2° antibody. At last, cells were washed with dPBS and re-suspended with dPBS+1 mM EDTA, and then subjected to FACS analysis using a NOVOCYTE® Flow Cytometer. Bound antibody was determined by excitation at 488 nm and measurement of emission (FITC-A) at 530 nm (FIGS. 5A-5I) or by excitation at 640 nm and measurement of emission (APC-A) at 675 nm (FIGS. 5J-5R). Results for these assays are shown in histogram plots in FIGS. 5A-5R.
Take B1: the binding result is “no binding (tested: roughly 1 µg/ml)”.
The same measure, in the same setting: to B2 belongs “no binding (tested: roughly 1 µg/ml)”; to B3, “no binding (tested: roughly 1 µg/ml)”.
Turning to B4, the binding result is given as “no binding (tested: roughly 1 µg/ml)”.
The same measure, in the same setting: under B5 stands “no binding (tested: roughly 1 µg/ml)”.
For B6, the binding result was “no binding (tested: roughly 1 µg/ml)”.
